From US9683053B2 (Glenmark Pharmaceuticals S.A., dated 2017)

Tests used:
Experiment in all cases: co-expression, protein-A, scanning densitometry of non-reduced SDS-PAGE
[1] = molecular target: VH(anti-hCD19)-CH13-BT beta c-myc_VL(anti-hCD19)-CK3 molecule (half-molecule) (Artificial Sequence)
VL-BT beta chain = VL-BT beta chain (Artificial Sequence)
[2] = molecular target: VH(anti-hCD19)-CH1 delta-BT beta c-myc_VL(anti-hCD19)-CK gamma molecule (half-molecule) (Artificial Sequence)
VL-BT beta F405A chain = VL-BT beta F405A chain (Artificial Sequence)
VL-BT beta F405A chain (Artificial Sequence), sequence (chain, as listed by the source F405A F405A): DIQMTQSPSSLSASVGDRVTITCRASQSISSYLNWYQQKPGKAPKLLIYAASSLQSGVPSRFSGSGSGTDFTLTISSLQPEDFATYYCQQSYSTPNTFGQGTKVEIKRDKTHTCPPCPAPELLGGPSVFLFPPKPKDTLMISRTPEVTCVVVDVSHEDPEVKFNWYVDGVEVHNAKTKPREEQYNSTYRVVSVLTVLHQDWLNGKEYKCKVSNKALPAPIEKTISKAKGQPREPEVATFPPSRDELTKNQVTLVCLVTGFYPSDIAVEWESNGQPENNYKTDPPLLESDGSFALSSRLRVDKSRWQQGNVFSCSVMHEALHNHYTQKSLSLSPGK

VH(anti-hCD19)-CH13-BT beta c-myc_VL(anti-hCD19)-CK3 molecule (half-molecule) (Artificial Sequence), sequence (heavy, as listed by the source, chain 1 of 2): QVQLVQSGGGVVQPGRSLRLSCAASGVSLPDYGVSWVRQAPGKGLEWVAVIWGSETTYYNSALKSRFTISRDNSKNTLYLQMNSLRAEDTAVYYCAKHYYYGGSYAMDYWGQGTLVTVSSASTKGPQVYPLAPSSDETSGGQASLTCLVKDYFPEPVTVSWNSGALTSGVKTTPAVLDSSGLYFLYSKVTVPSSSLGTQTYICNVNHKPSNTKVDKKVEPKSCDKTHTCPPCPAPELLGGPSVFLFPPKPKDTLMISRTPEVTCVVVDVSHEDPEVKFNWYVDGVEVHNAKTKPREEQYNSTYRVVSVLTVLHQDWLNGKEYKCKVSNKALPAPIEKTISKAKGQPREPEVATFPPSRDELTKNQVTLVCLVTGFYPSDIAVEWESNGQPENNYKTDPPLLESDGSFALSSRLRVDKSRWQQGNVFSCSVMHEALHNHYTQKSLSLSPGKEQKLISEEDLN
VH(anti-hCD19)-CH13-BT beta c-myc_VL(anti-hCD19)-CK3 molecule (half-molecule) (Artificial Sequence), sequence (light, as listed by the source, chain 2 of 2): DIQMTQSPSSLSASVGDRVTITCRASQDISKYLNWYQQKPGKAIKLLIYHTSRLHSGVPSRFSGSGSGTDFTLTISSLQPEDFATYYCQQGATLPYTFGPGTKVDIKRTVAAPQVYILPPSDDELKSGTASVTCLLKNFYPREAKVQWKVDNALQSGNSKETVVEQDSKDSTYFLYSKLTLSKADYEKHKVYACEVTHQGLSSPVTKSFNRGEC
VL-BT beta chain (Artificial Sequence), sequence (chain, as listed by the source): as the sequence (chain, as listed by the source F405A F405A) above, with A293C counted along it
VH(anti-hCD19)-CH1 delta-BT beta c-myc_VL(anti-hCD19)-CK gamma molecule (half-molecule) (Artificial Sequence), sequence (heavy, as listed by the source, chain 1 of 2): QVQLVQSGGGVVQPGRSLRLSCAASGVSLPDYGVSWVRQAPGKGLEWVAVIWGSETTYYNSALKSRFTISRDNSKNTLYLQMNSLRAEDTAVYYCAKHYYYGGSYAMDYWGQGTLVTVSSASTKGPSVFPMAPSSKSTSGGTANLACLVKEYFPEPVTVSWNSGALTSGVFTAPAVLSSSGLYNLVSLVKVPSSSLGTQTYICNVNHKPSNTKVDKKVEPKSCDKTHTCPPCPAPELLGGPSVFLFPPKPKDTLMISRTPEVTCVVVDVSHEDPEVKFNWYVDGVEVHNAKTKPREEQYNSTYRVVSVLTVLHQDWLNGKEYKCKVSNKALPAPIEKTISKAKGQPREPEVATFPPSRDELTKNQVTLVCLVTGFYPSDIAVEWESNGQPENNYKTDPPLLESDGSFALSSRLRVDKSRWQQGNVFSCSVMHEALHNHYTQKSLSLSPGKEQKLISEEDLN
VH(anti-hCD19)-CH1 delta-BT beta c-myc_VL(anti-hCD19)-CK gamma molecule (half-molecule) (Artificial Sequence), sequence (light, as listed by the source, chain 2 of 2): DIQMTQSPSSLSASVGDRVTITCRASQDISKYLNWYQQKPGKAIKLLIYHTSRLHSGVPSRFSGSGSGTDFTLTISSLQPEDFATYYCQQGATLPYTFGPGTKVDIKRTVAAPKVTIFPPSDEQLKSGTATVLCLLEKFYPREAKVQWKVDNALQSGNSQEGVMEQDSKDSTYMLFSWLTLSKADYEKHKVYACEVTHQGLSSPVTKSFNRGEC

hetero-dimer percentage of the protein-A purified material [1]: ≥ 51.9%
hetero-dimer percentage of the protein-A purified material (VL-BT beta chain): ≥ 76.1%
hetero-dimer percentage of the protein-A purified material [2]: ≥ 50%
hetero-dimer percentage of the protein-A purified material (VL-BT beta F405A chain): ≥ 80.7%
B1: BT alpha His chain (other)
chain: DKTHTCPPCPAPELLGGPSVFLFPPKPKDTLMISRTPEVTCVVVDVSHEDPEVKFNWYVDGVEVHNAKTKPREEQYNSTYRVVSVLTVLHQDWLNGKEYKCKVSNKALPAPIEKTISKAKGQPREPQVYTLPPSRDELTKNQVKLVCLVTGFYPSDIAVEWESNGQPENNYYTTPPVLDSDGSFSLVSWLNVDKSRWQQGNVFSCSVMHEALHNHYTQKSLSLSPGKHHHHHH
